Laboratory results from publication PMC5382265, “Macrocycle peptides delineate locked-open inhibition mechanism for microorganism phosphoglycerate mutases” (Nature Communications, 2017).

Molecular target: C. elegans cofactor-independent phosphoglycerate mutase (iPGM) (C. elegans) (UniProt G5EFZ1)

Ce-2S (Ce-2 with Cys14Ser) (peptide)
IC50 of inhibition of PGM activity, enzyme-coupled bioluminescent assay: 10 nM
